Positions of bridges follow the written chain, without caps; N, C: chain ends. Non-standard residues stand in square brackets, D forms with d. Residues, ends and D or L forms follow the SMILES beside them. Triazole bridges read from a SMILES are 1,4-linked. Lys(N3) = [N-]=[N+]=NCCCC[C@H](N)C(=O)O; Cha = N[C@@H](CC1CCCCC1)C(=O)O; Pra = C#CC[C@H](N)C(=O)O
What was measured:
[1] = target: T1, human ghrelin receptor (GHSR) (Homo sapiens, UniProt Q92847, C146S/C304S); assay: Bimane fluorescence assay on purified ghrelin receptor in nanodiscs; assay type: biochemical; details: for conformational change in the receptor: in presence of JMV1843
T1 construct: integrin α5 fragment (N); polyhistidine tag (C); made in house; host or cells: E. coli BL21(DE3)
From the text: Another assay that can be used to analyse conformational changes associated with GPCR activation and/or to identify G protein peptidomimetics that are capable of stabilizing a GPCR in an active conformational state is the bimane fluorescence assay or bimane assay. This assay works through labelling of a cysteine residue in the lower part of the TM6 of a GPCR with a bimane-fluorophore (monobromobimane (MB)). Binding of an agonist to the GPCR causes a conformational change and outward movement of TM6 that places bimane in a more solved-exposed position, which will alter its maximum emission wavelength. In particular, increasing concentrations of agonist result in a concentration-dependent red-shift of the maximum emission wavelength (λmax) of the bimane-fluorophore probe. In the presence of a G protein or an active state stabilizing G protein peptidomimetic λmax may increase further. For example, a bimane labelled ghrelin receptor (such as a cysmin mutant (i.e. mutant with minimal cysteines) of human ghrelin receptor (also referred to herein as growth hormone secretagogue receptor (GHSR) (e.g. the mutant as described in Damian et al. (2021) wherein monobromobimane (MB) fluorescent probe is attached to Cys^255) and ghrelin receptor agonist JMV1843 may be used.
The bimane fluorescence assays on the ghrelin receptor were performed as described in Damian et al. (2021. Nat. Commun. 12:1-15). Briefly, E. coli bacteria (BL21(DE3)) were transformed with a vector encoding the human ghrelin receptor with an integrin α5 fragment at the N-terminus and a polyhistidine tag at the C-terminus. The receptors were then purified and reconstituted into lipidated nanodiscs. The monobromobimane labeling was performed by incubating the receptors, with a unique reactive cysteine at position 255, during 16 h in the dark at 4° C. and in the presence of 0.1 mM tris(2-carboxyethyl)phosphine (TCEO). The reaction was terminated with 5 mM L-cysteine and unreacted monobromobimane was removed using a Zeba™ Spin desalting column.
For the fluorescence assay, the labeled receptor was incubated during 2 h at 20° C. (0.2 μM final concentration), in the absence or presence of the full agonist JMV1843 (20 μM) and in the absence or presence of either the peptidomimetics at varying molar ratios or the purified Gαqβ1γ2 heterotrimer, at a 1:5 receptor-to-G protein molar ratio. Afterwards, the fluorescence experiments were performed on a Horiba Fluoromax-4 TCSP spectrofluorimeter. For each scan, the excitation wavelength (λexc) was set at 380 nm and emission was collected between 440 nm and 520 nm.
The bimane assay is used on GPCRs to detect conformational changes associated with receptor activation. This assay functions through the labelling of a cysteine, which is one of the least frequently occurring amino acids in proteins. Additionally, the majority of the extracellular cysteines form disulfide bonds, which, together with the transmembrane cysteines, are inert to thiol-reactive reagents. Additionally, some of the intracellular cysteines in the C-terminal tail may carry post-translational modifications which reduces the number of reactive cysteines in the receptor (Tian et al. 2017. Chem. Rev. 117:186-245). For GHSR, the remaining reactive cysteine residues C146 (ICL2) and C304 (extracellular end of TM7) were replaced by serines (cysmin mutant, i.e. mutant with minimal cysteines), to allow the monobromobimane (MB) fluorescent probe to be specifically attached to Cys255 in the lower part of TM6 (FIG. 5a) (Damian et al. 2021). In this assay, bimane is chosen because of its small size and sensitivity to the polarity of its environment (Yao et al. 2006. Nat Chem. Biol. 2:417-422). Binding of a ligand to the receptor, causes a conformational change and outward movement of TM6 that places bimane in a more solvent-exposed position, which alters its maximum emission wavelength. […]

[2] = target: T2, full-length human muscarinic 1 receptor with a FLAG tag at the N-terminus (human, UniProt P11229 1-460); assay: cell-based or functional assay
T2 sequence: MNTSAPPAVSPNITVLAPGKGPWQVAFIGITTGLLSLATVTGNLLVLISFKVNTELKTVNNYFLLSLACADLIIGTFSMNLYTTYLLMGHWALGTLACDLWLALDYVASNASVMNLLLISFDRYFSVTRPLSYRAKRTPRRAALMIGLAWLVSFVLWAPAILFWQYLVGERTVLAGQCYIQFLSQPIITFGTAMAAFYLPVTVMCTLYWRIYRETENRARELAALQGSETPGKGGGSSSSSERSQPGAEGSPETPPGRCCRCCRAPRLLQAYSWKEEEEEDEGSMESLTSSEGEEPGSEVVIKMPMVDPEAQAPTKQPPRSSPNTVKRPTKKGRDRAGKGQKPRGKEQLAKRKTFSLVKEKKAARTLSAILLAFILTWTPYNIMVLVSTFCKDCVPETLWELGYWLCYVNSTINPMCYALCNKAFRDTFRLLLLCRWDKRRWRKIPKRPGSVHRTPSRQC

[3] = target: ghrelin receptor overexpressed on HEK293 cells (UniProt Q92847 1-366, limits assumed); assay: cell-based or functional assay
Chain of ghrelin receptor overexpressed on HEK293 cells (Q92847 whole entry): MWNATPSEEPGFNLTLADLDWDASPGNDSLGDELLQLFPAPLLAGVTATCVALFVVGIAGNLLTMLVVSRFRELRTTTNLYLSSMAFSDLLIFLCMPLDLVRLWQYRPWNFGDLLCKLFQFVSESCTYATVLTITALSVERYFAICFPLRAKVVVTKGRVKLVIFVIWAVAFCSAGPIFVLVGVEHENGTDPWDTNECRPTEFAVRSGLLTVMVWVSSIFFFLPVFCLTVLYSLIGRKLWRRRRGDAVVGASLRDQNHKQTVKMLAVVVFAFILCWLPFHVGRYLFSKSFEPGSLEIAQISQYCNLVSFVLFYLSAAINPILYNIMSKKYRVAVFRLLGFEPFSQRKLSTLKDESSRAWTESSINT

T1 sequence (Q92847 whole entry C146S/C304S, the tested form may be a part): as the sequence (Q92847 whole entry) above, with C146S, C304S counted along it

Ac-FAAVKDTILQLNLKEYNLV-OH [SBL-GQ-01]
conformational change in the receptor ([1]; bimane labeled GHSR): not able to induce a conformational change

CC(C)(N)C(=O)N[C@H](Cc1c[nH]c2ccccc12)C(=O)N[C@H](Cc1c[nH]c2ccccc12)NC=O [JMV1843, reference compound]
maximum emission wavelength of bimane ([1]; agonist JMV1843 alone, in the absence of the Gq protein): ~476 nm

CC[C@H](C)[C@H](NC(=O)[C@@H](NC(=O)[C@H](CC(=O)O)NC(=O)[C@H](CCCCN)NC(=O)[C@@H](NC(=O)[C@H](C)NC(=O)[C@H](C)NC(=O)[C@H](Cc1ccccc1)NC(C)=O)C(C)C)[C@@H](C)O)C(=O)N[C@@H](CC(C)C)C(=O)N[C@@H](CCC(N)=O)C(=O)N[C@@H](CC(C)C)C(=O)N[C@@H](CC(N)=O)C(=O)N[C@@H](CC(C)C)C(=O)N[C@@H](CCCCN)C(=O)N[C@@H](CCC(=O)O)C(=O)N[C@@H](Cc1ccc(O)cc1)C(=O)N[C@@H](CC(N)=O)C(=O)N[C@@H](CC1CCCCC1)C(=O)N[C@H](C(=O)O)C(C)C [SBL-GQ-03] (Ac-FAAVKDTILQLNLKEYN[Cha]V-OH)
conformational change in the receptor ([1]; bimane labeled GHSR): not able to induce a conformational change

CC[C@H](C)[C@H](NC(=O)[C@@H]1CCCCn2cc(nn2)C[C@H](NC(=O)[C@H](C)NC(=O)[C@H](Cc2ccccc2)NC(=O)[C@H](CCCCN)NC(=O)[C@H](CCCCN)NC(=O)[C@H](CCCCN)NC(C)=O)C(=O)N[C@@H](C(C)C)C(=O)N[C@@H](CCCCN)C(=O)N[C@@H](CC(=O)O)C(=O)N1)C(=O)N[C@@H](CC(C)C)C(=O)N[C@@H](CCC(N)=O)C(=O)N[C@@H](CC(C)C)C(=O)N[C@@H](CC(N)=O)C(=O)N[C@@H](CC(C)C)C(=O)N[C@@H](CCCCN)C(=O)N[C@@H](CCC(=O)O)C(=O)N[C@@H](Cc1ccc(O)cc1)C(=O)N[C@@H](CC(N)=O)C(=O)N[C@@H](CC(C)C)C(=O)N[C@H](C(=O)O)C(C)C [SBL-GQ-05] (Ac-KKKFA[Pra]VKD[Lys(N3)]ILQLNLKEYNLV-OH; triazole 6-10)
Emax ([1]; highest peptide concentrations (GHSR:peptide 1:50, 1:100), with JMV1843, read-out: effect normalized to the maximal effect of the Gq protein): ~90%

Gq protein: purified Gαqβ1γ2 heterotrimer used as reference in the bimane assay
maximum emission wavelength of bimane ([1]; bimane labeled GHSR, in presence of full agonist JMV1843 (20 μM)): ~480.5 nm

B1: SBL-GQ-02 (peptide)
peptide: Ac-KKKFAAVKDTILQLNLKEYNLV-OH
IC50 (µM) of the agonist acetylcholine chloride for the M1 receptor in the presence of the peptidomimetic, RLA [2]: 474 µM
Shift (IC50 ratio without/with peptidomimetic), RLA [2]: 2

B2: SBL-GQ-08 (peptide)
peptide: Ac-KKKFNDCKDIILQMNLREYNLV-OH
IC50 (µM) of the agonist acetylcholine chloride for the M1 receptor in the presence of the peptidomimetic, RLA [2]: 413 µM
Shift (IC50 ratio without/with peptidomimetic), RLA [2]: 2

B3: SBL-GQ-10 (peptide)
peptide: Ac-KKKFNDCKDIILQMNLREYN[Cha]V-OH
SMILES: CC[C@H](C)[C@H](NC(=O)[C@H](CC(=O)O)NC(=O)[C@H](CCCCN)NC(=O)[C@H](CS)NC(=O)[C@H](CC(=O)O)NC(=O)[C@H](CC(N)=O)NC(=O)[C@H](Cc1ccccc1)NC(=O)[C@H](CCCCN)NC(=O)[C@H](CCCCN)NC(=O)[C@H](CCCCN)NC(C)=O)C(=O)N[C@H](C(=O)N[C@@H](CC(C)C)C(=O)N[C@@H](CCC(N)=O)C(=O)N[C@@H](CCSC)C(=O)N[C@@H](CC(N)=O)C(=O)N[C@@H](CC(C)C)C(=O)N[C@@H](CCCNC(=N)N)C(=O)N[C@@H](CCC(=O)O)C(=O)N[C@@H](Cc1ccc(O)cc1)C(=O)N[C@@H](CC(N)=O)C(=O)N[C@@H](CC1CCCCC1)C(=O)N[C@H](C(=O)O)C(C)C)[C@@H](C)CC
IC50 (µM) of the agonist acetylcholine chloride for the M1 receptor in the presence of the peptidomimetic, RLA [2]: 409 µM
Shift (IC50 ratio without/with peptidomimetic), RLA [2]: 2

B4: SBL-GQ-13 (peptide)
peptide: H-KKKFA[Pra]VKD[Lys(N3)]ILQLNLKEYNLV-OH
modifications: triazole 6-10
EC50 (M) of the MK0677 agonist, IP-One Gq assay, peptidomimetic at 10 µM, n = 1 [3]: 4.42e-10 M
EC50 (M) of the MK0677 agonist, IP-One Gq assay, peptidomimetic at 10 µM, n = 2 [3]: 1.01e-10 M
EC50 (M) of the MK0677 agonist, IP-One Gq assay, peptidomimetic at 10 µM, n = 3 [3]: 1.31e-10 M

B5: SBL-GQ-14 (peptide)
peptide: H-RRRRFA[Pra]VKD[Lys(N3)]ILQLNLKEYNLV-OH
modifications: triazole 7-11
EC50 (M) of the MK0677 agonist, IP-One Gq assay, peptidomimetic at 10 µM, n = 1 [3]: 6.96e-10 M
EC50 (M) of the MK0677 agonist, IP-One Gq assay, peptidomimetic at 10 µM, n = 2 [3]: 1.01e-10 M
EC50 (M) of the MK0677 agonist, IP-One Gq assay, peptidomimetic at 10 µM, n = 3 [3]: 1.87e-10 M

From patent publication US20260242759A1, “GQ/11 Protein Peptidomimetics” (Vrije Universiteit Brussel, priority 2022, published 2026)
